Starred links: 1 amine or outer side, 2 acyl side, 3 side chain; linkers in the order of their positions; H or OH if unused. Positions of bridges follow the written chain, without caps; N, C: chain ends. Non-standard residues stand in square brackets, D forms with d. Primed or numbered codes have the meaning given here. *: point of attachment. PyrS2(3) = (S)-3-amino-1-((pent-4-en-1-yloxy)carbonyl)pyrrolidine-3-carboxylic acid, stapling residue, C=CCCCOC(=O)N1CC[C@@](N[*:1])(C(=O)[*:2])C1; PyrS2″ = (S)-3-amino-1-((pent-4-en-1-yloxy)carbonyl)pyrrolidine-3-carboxylic acid (stapling residue), C=CCCCOC(=O)N1CC[C@@](N[*:1])(C(=O)[*:2])C1; B5(4) = 2,2-bis(4-pentenyl)glycine = 2-amino-2-(pent-4-en-1-yl)hept-6-enoic acid (stitching residue), C=CCCCC(CCCC=C)(N[*:1])C(=O)[*:2]; TfeGA = (S)-2-amino-3-((carboxymethyl)(2,2,2-trifluoroethyl)amino)propanoic acid, O=C([C@H](CN(CC(=O)[*:3])CC(F)(F)F)N[*:1])[*:2]; B5(3) = 2,2-bis(4-pentenyl)glycine (stitching residue), C=CCCCC(CCCC=C)(N[*:1])C(=O)[*:2]; B5″ = 2,2-bis(4-pentenyl)glycine, stitching residue, C=CCCCC(CCCC=C)(N[*:1])C(=O)[*:2]; Phe(2-Cl) = N[C@@H](Cc1ccccc1Cl)C(=O)O; Bta = N[C@@H](Cc1csc2ccccc12)C(=O)O; αAllylPro = C=CC[C@@]1(C(=O)O)CCCN1; tBuAla = CC(C)(C)C[C@H](N)C(=O)O; 3Thi = N[C@@H](Cc1ccsc1)C(=O)O; Leu(ol) = CC(C)C[C@H](N)CO; Alaol = C[C@@H](CO)N*
Legend:
[1] = molecular target: T1, beta-catenin (Homo sapiens (Human), UniProt P35222 1-781); assay: cell-based or functional assay
T1 sequence: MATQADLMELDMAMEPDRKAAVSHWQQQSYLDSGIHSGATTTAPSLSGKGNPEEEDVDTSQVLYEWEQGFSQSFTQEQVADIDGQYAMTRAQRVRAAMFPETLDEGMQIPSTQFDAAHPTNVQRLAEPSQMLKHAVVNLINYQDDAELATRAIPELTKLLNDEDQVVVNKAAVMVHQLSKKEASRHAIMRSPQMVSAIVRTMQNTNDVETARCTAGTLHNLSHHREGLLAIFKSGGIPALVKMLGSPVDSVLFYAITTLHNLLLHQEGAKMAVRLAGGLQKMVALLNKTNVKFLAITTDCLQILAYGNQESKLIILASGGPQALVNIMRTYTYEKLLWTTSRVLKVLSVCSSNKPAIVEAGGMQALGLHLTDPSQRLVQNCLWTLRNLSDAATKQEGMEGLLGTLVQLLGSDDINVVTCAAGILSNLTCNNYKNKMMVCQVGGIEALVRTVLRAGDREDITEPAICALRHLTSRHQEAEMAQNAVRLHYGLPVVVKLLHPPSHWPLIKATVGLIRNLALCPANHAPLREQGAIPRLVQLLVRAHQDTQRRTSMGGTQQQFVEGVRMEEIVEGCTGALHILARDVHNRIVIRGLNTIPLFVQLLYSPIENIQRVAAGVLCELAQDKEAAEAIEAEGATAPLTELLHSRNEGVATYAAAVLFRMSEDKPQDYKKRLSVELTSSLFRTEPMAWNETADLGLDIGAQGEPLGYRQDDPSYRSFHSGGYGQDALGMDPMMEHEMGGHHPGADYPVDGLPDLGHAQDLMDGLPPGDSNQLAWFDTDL

[2] = molecular target: T2, beta-catenin (Homo sapiens (Human), UniProt P35222 2-781); assay: cell-based or functional assay
T2 sequence: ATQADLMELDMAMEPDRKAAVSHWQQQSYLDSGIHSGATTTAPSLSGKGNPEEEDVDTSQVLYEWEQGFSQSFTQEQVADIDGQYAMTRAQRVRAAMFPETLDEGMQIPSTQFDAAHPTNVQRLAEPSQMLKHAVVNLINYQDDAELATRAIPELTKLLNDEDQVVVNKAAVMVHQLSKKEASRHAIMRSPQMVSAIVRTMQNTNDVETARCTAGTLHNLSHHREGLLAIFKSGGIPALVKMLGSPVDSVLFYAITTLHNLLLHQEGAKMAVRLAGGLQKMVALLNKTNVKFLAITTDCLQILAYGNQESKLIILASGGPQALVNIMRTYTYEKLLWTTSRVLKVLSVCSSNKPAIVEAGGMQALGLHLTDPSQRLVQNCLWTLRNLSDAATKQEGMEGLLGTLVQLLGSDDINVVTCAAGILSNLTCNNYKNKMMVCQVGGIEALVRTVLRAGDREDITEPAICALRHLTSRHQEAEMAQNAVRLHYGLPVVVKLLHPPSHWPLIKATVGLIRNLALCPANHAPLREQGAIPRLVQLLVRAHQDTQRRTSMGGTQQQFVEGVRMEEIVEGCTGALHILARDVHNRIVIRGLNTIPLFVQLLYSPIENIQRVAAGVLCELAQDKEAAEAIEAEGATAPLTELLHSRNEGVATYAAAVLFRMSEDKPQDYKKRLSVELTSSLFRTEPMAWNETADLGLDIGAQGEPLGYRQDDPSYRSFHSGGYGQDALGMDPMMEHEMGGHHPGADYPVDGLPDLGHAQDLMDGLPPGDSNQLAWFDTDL

Binder | DLD1 TCF c2 BrightGlo % Inhibition (TCF/LEF luciferase reporter; 0.625 uM by plate map, replicate 1) [2] [%] | DLD1 TCF c2 BrightGlo % Inhibition (TCF/LEF luciferase reporter; 0.625 uM by plate map, replicate 2) [2] [%] | DLD1 TCF c2 BrightGlo % Inhibition (TCF/LEF luciferase reporter; 0.625 uM by plate map, replicate 3) [2] [%] | DLD1 TCF c2 BrightGlo % Inhibition (TCF/LEF luciferase reporter; 1.25 uM by plate map, replicate 1) [2] [%] | DLD1 TCF c2 BrightGlo % Inhibition (TCF/LEF luciferase reporter; 1.25 uM by plate map, replicate 2) [2] [%] | DLD1 TCF c2 BrightGlo % Inhibition (TCF/LEF luciferase reporter; 1.25 uM by plate map, replicate 3) [2] [%] | DLD1 TCF c2 BrightGlo % Inhibition (TCF/LEF luciferase reporter; 2.5 uM by plate map, replicate 1) [2] [%] | DLD1 TCF c2 BrightGlo % Inhibition (TCF/LEF luciferase reporter; 2.5 uM by plate map, replicate 2) [2] [%] | DLD1 TCF c2 BrightGlo % Inhibition (TCF/LEF luciferase reporter; 2.5 uM by plate map, replicate 3) [2] [%] | DLD1 TCF c2 BrightGlo % Inhibition (TCF/LEF luciferase reporter; 5 uM by plate map, replicate 1) [2] [%] | DLD1 TCF c2 BrightGlo % Inhibition (TCF/LEF luciferase reporter; 5 uM by plate map, replicate 2) [2] [%] | DLD1 TCF c2 BrightGlo % Inhibition (TCF/LEF luciferase reporter; 5 uM by plate map, replicate 3) [2] [%] | DLD1 TCF c2 BrightGlo % Inhibition (TCF/LEF luciferase reporter; 10 uM by plate map, replicate 1) [2] [%] | DLD1 TCF c2 BrightGlo % Inhibition (TCF/LEF luciferase reporter; 10 uM by plate map, replicate 2) [2] [%] | DLD1 TCF c2 BrightGlo % Inhibition (TCF/LEF luciferase reporter; 10 uM by plate map, replicate 3) [2] [%] | DLD1 TCF c2 BrightGlo % Inhibition (TCF/LEF luciferase reporter; 20 uM by plate map, replicate 1) [2] [%] | DLD1 TCF c2 BrightGlo % Inhibition (TCF/LEF luciferase reporter; 20 uM by plate map, replicate 2) [2] [%] | DLD1 TCF c2 BrightGlo % Inhibition (TCF/LEF luciferase reporter; 20 uM by plate map, replicate 3) [2] [%] | also measured
Ac-[αAllylPro]D[tBuAla][B5″]D[TfeGA]AAFN[PyrS2(3)][3Thi][Bta]Q-NH2 (staple 1-4, 4-11) [I-762] | – | – | – | – | – | – | – | – | – | – | – | – | – | – | – | – | – | – | DLD1 TCF c2 BrightGlo % Inhibition, 0.625 uM, replicate 1 [1]: 14.5%; DLD1 TCF c2 BrightGlo % Inhibition, 0.625 uM, replicate 2 [1]: 18.6%; DLD1 TCF c2 BrightGlo % Inhibition, 0.625 uM, replicate 3 [1]: 9.3%; DLD1 TCF c2 BrightGlo % Inhibition, 1.25 uM, replicate 1 [1]: 12.9%; DLD1 TCF c2 BrightGlo % Inhibition, 1.25 uM, replicate 2 [1]: 16.9%; DLD1 TCF c2 BrightGlo % Inhibition, 1.25 uM, replicate 3 [1]: 5.5%; DLD1 TCF c2 BrightGlo % Inhibition, 2.5 uM, replicate 1 [1]: 12.9%; DLD1 TCF c2 BrightGlo % Inhibition, 2.5 uM, replicate 2 [1]: 17.4%; DLD1 TCF c2 BrightGlo % Inhibition, 2.5 uM, replicate 3 [1]: 11.9%; DLD1 TCF c2 BrightGlo % Inhibition, 5 uM, replicate 1 [1]: 28.2%; DLD1 TCF c2 BrightGlo % Inhibition, 5 uM, replicate 2 [1]: 45.2%; DLD1 TCF c2 BrightGlo % Inhibition, 5 uM, replicate 3 [1]: 44.6%; DLD1 TCF c2 BrightGlo % Inhibition, 10 uM, replicate 1 [1]: 56.8%; DLD1 TCF c2 BrightGlo % Inhibition, 10 uM, replicate 2 [1]: 70.2%; DLD1 TCF c2 BrightGlo % Inhibition, 10 uM, replicate 3 [1]: 65.6%; DLD1 TCF c2 BrightGlo % Inhibition, 20 uM, replicate 1 [1]: 75.7%; DLD1 TCF c2 BrightGlo % Inhibition, 20 uM, replicate 2 [1]: 81.9%; DLD1 TCF c2 BrightGlo % Inhibition, 20 uM, replicate 3 [1]: 78.7%
Ac-[αAllylPro]D[tBuAla][B5(4)]DDAAFN[PyrS2″][Phe(2-Cl)][Bta][Leu(ol)] (staple 1-4, 4-11) [I-1080] | 20.2 | 13.7 | 15.3 | 16 | 13.8 | 12.3 | 14.6 | 19.8 | 7.9 | 24.9 | 31 | 24.4 | 42.4 | 42.2 | 38.1 | 51.4 | 56.9 | 51.8 | –
Ac-[αAllylPro]D[tBuAla][B5(3)]DDAAFN[PyrS2″][Phe(2-Cl)][Bta]-Alaol (staple 1-4, 4-11) [I-1081] | 9.2 | 7.1 | 11.5 | 0.8 | 2.4 | 5.4 | 4.5 | 7.9 | 15.2 | 17.5 | 23.8 | 31 | 45.6 | 49.8 | 55.3 | 67.2 | 69.3 | 72.3 | –

From patent US20240116985A1 (published 2024)
